{"source": "paper PMC4437517", "proteins": {"B1": {"name": "At1g05000 (Arabidopsis thaliana; M1S) (protein)", "chain": "SKLVEKTTTTEQDNGEDFCRTIIEVSEVNRNVFQAPGGEADPFRVVSGEELHLIPPLNFSMVDNGIFRSGFPDSANFSFLQTLGLRSIIYLCPEPYPESNLQFLKSNGIRLFQFGIEGNKEPFVNIPDHKIRMALKVLLDEKNHPVLIHCKRGKHRTGCLVGCLRKLQKWCLTSIFDEYQRFAAAKARVSDQRFMEIFDVSSFSHIPMSFSCSIR"}}, "assay_type_in_all_cases": "biochemical, Arabidopsis thaliana", "key": {"[1]": {"substrate": "O=[N+]([O-])c1ccc(OP(=O)(O)O)cc1", "assay": "phosphatase assay, non-linear fit", "details": "pH 5.0, no metal, 37 °C"}, "[2]": {"substrate": "Nc1ncnc2c1ncn2[C@@H]1O[C@H](COP(=O)(O)OP(=O)(O)OP(=O)(O)O)[C@@H](O)[C@H]1O", "assay": "Malachite Green phosphate release, non-linear fit", "details": "pH 5.0, no metal, 37 °C"}, "[3]": {"substrate": "N[C@@H](Cc1ccc(OP(=O)(O)O)cc1)C(=O)O", "assay": "Malachite Green phosphate release, non-linear fit", "details": "pH 5.0, no metal, 37 °C, substrate inhibition above 3.0 mM"}}}
{"protein": "B1", "values": [{"measurement": "Km", "setting": "[1]", "result": "0.67 ± 0.14", "unit": "mM"}, {"measurement": "Vmax", "setting": "[1]", "result": 0.64, "unit": "µmol/min/mg"}, {"measurement": "kcat", "setting": "[1]", "result": "0.26 ± 0.02", "unit": "s⁻¹"}, {"measurement": "kcat/Km", "setting": "[1]", "result": 392, "unit": "M⁻¹ s⁻¹"}, {"measurement": "Km", "setting": "[2]", "result": "0.48 ± 0.05", "unit": "mM"}, {"measurement": "Vmax", "setting": "[2]", "result": 1.52, "unit": "µmol/min/mg"}, {"measurement": "kcat", "setting": "[2]", "result": "0.62 ± 0.02", "unit": "s⁻¹"}, {"measurement": "kcat/Km", "setting": "[2]", "result": 1290, "unit": "M⁻¹ s⁻¹"}, {"measurement": "Km", "setting": "[3]", "result": "0.88 ± 0.10", "unit": "mM"}, {"measurement": "Vmax", "setting": "[3]", "result": 0.19, "unit": "µmol/min/mg"}, {"measurement": "kcat", "setting": "[3]", "result": "0.077 ± 0.004", "unit": "s⁻¹"}, {"measurement": "kcat/Km", "setting": "[3]", "result": 87.5, "unit": "M⁻¹ s⁻¹"}]}
